{
  "source": "patent US20140079691A1",
  "binders": {"B1": {"name": "APE1661 (antibody, human IgG1, kappa, V domains shown)", "VH": "EVQLVESGGGLVQPGGSLILSCAASGFTFTTYNMNWVRQAPGKGLEWVCVISTGGSNTYYADSVKGRFTCSRDNSKNTLYLQMNSLRAEDTAVYYCARDGGYSSSTLYAMDAWGAGTTVTVSS", "VL": "DVVLTQSPLSLAVLLGQPASISCRASKNIYNALAWYQQRPGQSPRLLIYNTDRLHTGVPDRFSGSGSGTDFTLKISRVEAEDVGVYFCQHYFDYPRTFGGGTKLEIKR"}, "B2": {"name": "APE1662 (antibody, human IgG1, kappa, V domains shown)", "VH": "EVQLVESGGGLVQPGGSLILSCAASGFTFSNHWMNWVRQAPGKGLEWVCAAINEDGSEKYYVGSVKVRFTCSRDNSKNTLYLQMNSLRAEDTAVYYCARDYYDILTDYYIHYWYFDLWGAGTTVTVSS", "VL": "DVVLTQSPLSLAVLLGQPASISCRASQSVSSSYLAWYQQRPGQSPRLLIYGASSRATGVPDRFSGSGSGTDFTLKISRVEAEDVGVYFCQQYGSSPLTFGGGTKLEIKR"}, "B3": {"name": "APE1775 (antibody, human IgG1, kappa, V domains shown)", "VH": "EVQLVESGGGLVQPGGSLILSCAASGFTFSSYAMTWVRQAPGKGLEWVCAISGSGSTYYADSVKGRFTCSRDNSKNTLYLQMNSLRAEDTAVYYCARRGLRYNYFDYWGAGTTVTVSS", "VL": "DVVLTQSPLSLAVLLGQPASISCRASQSVSSSYLAWYQQRPGQSPRLLIYGASSRATGVPDRFSGSGSGTDFTLKISRVEAEDVGVYFCQQYGRSLEYTFGGGTKLEIKR"}},
  "test_in_all_cases": "method not stated in Example 7",
  "key": {"β-NGF": {"target": "β-NGF", "sequence (P01138 122-241)": "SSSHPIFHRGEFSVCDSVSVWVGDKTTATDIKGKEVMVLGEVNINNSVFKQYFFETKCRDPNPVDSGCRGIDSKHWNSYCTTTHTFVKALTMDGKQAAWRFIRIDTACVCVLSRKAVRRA"}, "IL-17A": {"target": "IL-17A", "sequence (Q16552 24-155)": "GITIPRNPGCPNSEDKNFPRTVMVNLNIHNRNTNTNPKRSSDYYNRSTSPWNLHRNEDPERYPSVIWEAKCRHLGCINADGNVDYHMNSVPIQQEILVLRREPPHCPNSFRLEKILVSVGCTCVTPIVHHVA"}, "[1]": {"target": "C345C subunit of complement protein C5", "sequence (P01031 1532-1676)": "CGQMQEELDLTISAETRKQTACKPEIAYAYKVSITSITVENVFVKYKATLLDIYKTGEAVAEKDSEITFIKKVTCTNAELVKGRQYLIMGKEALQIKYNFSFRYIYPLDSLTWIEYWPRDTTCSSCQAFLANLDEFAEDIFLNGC"}},
  "data": [
    {"binder": "B1", "values": [
      {"measurement": "Kd", "setting": "β-NGF", "result": 12, "unit": "nM"},
      {"measurement": "fold loss in β-NGF binding affinity (against the parental antibody, APE579 in Table 3)", "setting": "β-NGF", "result": 2, "unit": "fold"}
    ]},
    {"binder": "B2", "values": [
      {"measurement": "Kd", "setting": "IL-17A", "result": 0.21, "unit": "nM"},
      {"measurement": "fold improvement in antigen binding affinity (against the parental antibody, APE508 in Table 3)", "setting": "IL-17A", "result": 1.6, "unit": "fold"}
    ]},
    {"binder": "B3", "values": [
      {"measurement": "Kd", "setting": "[1]", "result": 5, "unit": "nM"}
    ]}
  ]
}
